# Data published in publication PMC5004290, “Mapping an epitope in EBNA‐1 that is recognized by monoclonal antibodies to EBNA‐1 that cross‐react with dsDNA” (Immunity, Inflammation and Disease, 2016).
# No end group written: not given here. *: point of attachment. Biotin = O=C1N[C@H]2[C@H](CS[C@H]2CCCCC(=O)*)N1
# T1: Peptide GL-15 of EBNA-1 (aa 552-566) (Epstein-Barr virus (strain B95-8) …)
# T1 construct: EBNA-1 of Epstein Barr virus, aa 552-566; it is surmised from the streptavidin format of the peptide ELISA; source: synthetic peptide
# T1 chain: GPLRESIVCYFMVFL
# Tests used:
# [1] = molecular target: IgM monoclonal antibody 16D2 to EBNA-1 (mouse); test: ELISA; peptide inhibition ELISA; 16D2 (5 μg/ml) pre-incubated 1 h at 37°C with 0.1 to 100 μg/ml of peptide, then transferred to dsDNA coated plates, 2 h at 37°C
# Chain of IgM monoclonal antibody 16D2 to EBNA-1 (mouse) (heavy, as listed by the source): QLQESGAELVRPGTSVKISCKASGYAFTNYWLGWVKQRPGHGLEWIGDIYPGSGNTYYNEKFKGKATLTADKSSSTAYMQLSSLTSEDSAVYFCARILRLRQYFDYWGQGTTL
# [2] = molecular target: IgM monoclonal antibody 16D2 to EBNA-1 (mouse); test: ELISA; peptide inhibition ELISA; 16D2 (5 μg/ml) incubated with 0.1 μg/ml to 1 mg/ml of peptide, then transferred to EBNA-1 coated plates, 1 h at 37°C
# [3] = molecular target: T1, Peptide GL-15 of EBNA-1 (aa 552-566); test: ELISA; anti-peptide ELISA; biotinylated peptide (100 μg/ml), or mole equivalents of biotinylated PFM-15 and biotinylated EBNA-1, on streptavidin coated plates; 3D4 at 5 μg/ml in PBS, 0.1% BSA, 1 h at 37°C; details: both partners purified
Binder,percent inhibition of binding to dsDNA at 100 μg/ml of peptide [1] [%],percent inhibition of binding to EBNA-1 at 100 μg/ml of peptide [2] [%],binding result [3]
Biotin-PQPGPLRESIVCYFM [Peptide PFM-15 of EBNA-1 (aa 549-563)],60,70,–
"IgG monoclonal antibody 3D4 to EBNA-1 (antibody, V domains shown, gamma heavy chain, germline VH7183.14, JH2, 3 mutations; kappa light chain, germline bb1, JK1, 5 mutations; Mouse IgG1 kappa; also called MAb 3D4; source: hybridoma from an EBNA-1 injected mouse; IgG MAbs purified on protein G sepharose columns) VH: LQESGGGLVKPGGSLKLSCAASGFAFSSYDMSWVRQTPEKRLEWVATISSGGSYIYYPDSVKGRFTISRDNARNTLYLQMSSLRSEDTALYYCARPPPFYFDYWGQGTTLTVSS VL: TQSPLSLPVSLGEQASISCRSSQSLVHSNGNTYLHWYLQKPGQSPKLLIYKVSNRFSGVPDRFSGSGSGTDFTLKISRLEAEDLGFYFCSQTTHVPWTFGGGTK",–,–,binds
